Ends that are not written are not given here. * marks the point of attachment. C16 diacid = O=C(O)CCCCCCCCCCCCCCC(=O)*; Stearoyl = CCCCCCCCCCCCCCCCCC(=O)*; Palmitoyl = CCCCCCCCCCCCCCCC(=O)*; Myristoyl = CCCCCCCCCCCCCC(=O)*
T1: human GIP receptor (human, UniProt P48546 22-466)
T1 construct: whole, on cells; Transiently transfected COS-7 cells expressing the human GIP receptor; also called hGIPR
T1 sequence (looked up): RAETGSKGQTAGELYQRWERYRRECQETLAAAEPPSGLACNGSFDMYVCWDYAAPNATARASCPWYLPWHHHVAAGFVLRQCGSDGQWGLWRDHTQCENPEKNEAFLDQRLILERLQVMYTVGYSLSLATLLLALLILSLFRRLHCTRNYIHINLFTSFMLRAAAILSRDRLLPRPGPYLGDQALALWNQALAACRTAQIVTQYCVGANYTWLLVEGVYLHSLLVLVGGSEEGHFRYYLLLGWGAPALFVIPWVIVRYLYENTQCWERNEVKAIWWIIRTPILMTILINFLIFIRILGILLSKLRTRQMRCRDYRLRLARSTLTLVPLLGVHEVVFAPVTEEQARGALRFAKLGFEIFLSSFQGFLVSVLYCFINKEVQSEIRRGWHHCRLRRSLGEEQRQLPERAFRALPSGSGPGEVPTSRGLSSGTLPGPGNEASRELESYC

T2: human GIP receptor (human, UniProt P48546 22-466)
T2 sequence (looked up): T1 sequence (looked up)

B1: AT143 [hGIP(3-30)NH2[M14L; H18K]-C16/18] (peptide)
peptide: EGTFISDYSIALDKIK(Palmitoyl)QQDFVNWLLAQK-NH2
modifications: N-terminus assumed
SMILES: CCCCCCCCCCCCCCCC(=O)NCCCC[C@H](NC(=O)[C@@H](NC(=O)[C@H](CCCCN)NC(=O)[C@H](CC(=O)O)NC(=O)[C@H](CC(C)C)NC(=O)[C@H](C)NC(=O)[C@@H](NC(=O)[C@H](CO)NC(=O)[C@H](Cc1ccc(O)cc1)NC(=O)[C@H](CC(=O)O)NC(=O)[C@H](CO)NC(=O)[C@@H](NC(=O)[C@H](Cc1ccccc1)NC(=O)[C@@H](NC(=O)CNC(=O)[C@@H](N)CCC(=O)O)[C@@H](C)O)[C@@H](C)CC)[C@@H](C)CC)[C@@H](C)CC)C(=O)N[C@@H](CCC(N)=O)C(=O)N[C@@H](CCC(N)=O)C(=O)N[C@@H](CC(=O)O)C(=O)N[C@@H](Cc1ccccc1)C(=O)N[C@H](C(=O)N[C@@H](CC(N)=O)C(=O)N[C@@H](Cc1c[nH]c2ccccc12)C(=O)N[C@@H](CC(C)C)C(=O)N[C@@H](CC(C)C)C(=O)N[C@@H](C)C(=O)N[C@@H](CCC(N)=O)C(=O)N[C@@H](CCCCN)C(N)=O)C(C)C
B2: AT160 [hGIP(3-30)NH2[H18K]-C18/18] (peptide)
peptide: EGTFISDYSIAMDKIK(Stearoyl)QQDFVNWLLAQK-NH2
modifications: N-terminus assumed
SMILES: CCCCCCCCCCCCCCCCCC(=O)NCCCC[C@H](NC(=O)[C@@H](NC(=O)[C@H](CCCCN)NC(=O)[C@H](CC(=O)O)NC(=O)[C@H](CCSC)NC(=O)[C@H](C)NC(=O)[C@@H](NC(=O)[C@H](CO)NC(=O)[C@H](Cc1ccc(O)cc1)NC(=O)[C@H](CC(=O)O)NC(=O)[C@H](CO)NC(=O)[C@@H](NC(=O)[C@H](Cc1ccccc1)NC(=O)[C@@H](NC(=O)CNC(=O)[C@@H](N)CCC(=O)O)[C@@H](C)O)[C@@H](C)CC)[C@@H](C)CC)[C@@H](C)CC)C(=O)N[C@@H](CCC(N)=O)C(=O)N[C@@H](CCC(N)=O)C(=O)N[C@@H](CC(=O)O)C(=O)N[C@@H](Cc1ccccc1)C(=O)N[C@H](C(=O)N[C@@H](CC(N)=O)C(=O)N[C@@H](Cc1c[nH]c2ccccc12)C(=O)N[C@@H](CC(C)C)C(=O)N[C@@H](CC(C)C)C(=O)N[C@@H](C)C(=O)N[C@@H](CCC(N)=O)C(=O)N[C@@H](CCCCN)C(N)=O)C(C)C
B3: AT159 [hGIP(3-30)NH2[K16R; H18K; K30R]-C16diacid/18] (peptide)
peptide: EGTFISDYSIAMDRIK(C16 diacid)QQDFVNWLLAQR-NH2
modifications: N-terminus assumed
SMILES: CC[C@H](C)[C@H](NC(=O)[C@H](CO)NC(=O)[C@H](Cc1ccc(O)cc1)NC(=O)[C@H](CC(=O)O)NC(=O)[C@H](CO)NC(=O)[C@@H](NC(=O)[C@H](Cc1ccccc1)NC(=O)[C@@H](NC(=O)CNC(=O)[C@@H](N)CCC(=O)O)[C@@H](C)O)[C@@H](C)CC)C(=O)N[C@@H](C)C(=O)N[C@@H](CCSC)C(=O)N[C@@H](CC(=O)O)C(=O)N[C@@H](CCCNC(=N)N)C(=O)N[C@H](C(=O)N[C@@H](CCCCNC(=O)CCCCCCCCCCCCCCC(=O)O)C(=O)N[C@@H](CCC(N)=O)C(=O)N[C@@H](CCC(N)=O)C(=O)N[C@@H](CC(=O)O)C(=O)N[C@@H](Cc1ccccc1)C(=O)N[C@H](C(=O)N[C@@H](CC(N)=O)C(=O)N[C@@H](Cc1c[nH]c2ccccc12)C(=O)N[C@@H](CC(C)C)C(=O)N[C@@H](CC(C)C)C(=O)N[C@@H](C)C(=O)N[C@@H](CCC(N)=O)C(=O)N[C@@H](CCCNC(=N)N)C(N)=O)C(C)C)[C@@H](C)CC
B4: AT158 [hGIP(3-30)NH2[H18K]-C16diacid/18] (peptide)
peptide: EGTFISDYSIAMDKIK(C16 diacid)QQDFVNWLLAQK-NH2
modifications: N-terminus assumed
SMILES: CC[C@H](C)[C@H](NC(=O)[C@H](CO)NC(=O)[C@H](Cc1ccc(O)cc1)NC(=O)[C@H](CC(=O)O)NC(=O)[C@H](CO)NC(=O)[C@@H](NC(=O)[C@H](Cc1ccccc1)NC(=O)[C@@H](NC(=O)CNC(=O)[C@@H](N)CCC(=O)O)[C@@H](C)O)[C@@H](C)CC)C(=O)N[C@@H](C)C(=O)N[C@@H](CCSC)C(=O)N[C@@H](CC(=O)O)C(=O)N[C@@H](CCCCN)C(=O)N[C@H](C(=O)N[C@@H](CCCCNC(=O)CCCCCCCCCCCCCCC(=O)O)C(=O)N[C@@H](CCC(N)=O)C(=O)N[C@@H](CCC(N)=O)C(=O)N[C@@H](CC(=O)O)C(=O)N[C@@H](Cc1ccccc1)C(=O)N[C@H](C(=O)N[C@@H](CC(N)=O)C(=O)N[C@@H](Cc1c[nH]c2ccccc12)C(=O)N[C@@H](CC(C)C)C(=O)N[C@@H](CC(C)C)C(=O)N[C@@H](C)C(=O)N[C@@H](CCC(N)=O)C(=O)N[C@@H](CCCCN)C(N)=O)C(C)C)[C@@H](C)CC

Key:
[1] = molecular target: human GIP receptor (human) (UniProt P48546); experiment: cell-based or functional assay
[2] = molecular target: human GIP receptor (human) (UniProt P48546); experiment: 125I-hGIP(1-42) competition binding, COS-7 cells expressing human GIPR, 0.1% casein (no HSA)
[3] = molecular target: human GIP receptor (human) (UniProt P48546); experiment: 125I-hGIP(1-42) competition binding, COS-7 cells expressing human GIPR
[4] = molecular target: human GIP receptor (human) (UniProt P48546); experiment: ratio of IC50 with 2% HSA to IC50 with 0.1% casein, 125I-hGIP competition binding on hGIPR COS-7 cells
[5] = molecular target: human GIP receptor (human) (UniProt P48546); experiment: 125I-hGIP(1-42) competition binding, COS-7 cells expressing human GIPR, 2% HSA
[6] = molecular target: human GIP receptor (human) (UniProt P48546); experiment: 125I-hGIP competition binding on hGIPR COS-7 cells; fold in affinity, paired, reference taken as GIP(3-30)NH2
[7] = molecular target: human GIP receptor (human) (UniProt P48546); experiment: 125I-hGIP competition binding, COS-7 cells expressing hGIPR
[8] = molecular target: T1, human GIP receptor; experiment: 125I-hGIP(1-42) competition binding, COS-7 cells expressing human GIPR, 0.1% casein (no HSA)
Description: (§1) After incubation, the cells were washed twice in ice-cold binding buffer (+/−2% HSA) and lysed using 200 mM NaOH with 1% SDS for 30 min. Nonspecific binding was determined as the binding of radioactive ligand to untransfected cells.

[9] = molecular target: T1, human GIP receptor; experiment: cell-based or functional assay
[10] = molecular target: T1, human GIP receptor; experiment: 125I-hGIP(1-42) competition binding, COS-7 cells expressing human GIPR, 2% HSA
Description: as §1

[11] = molecular target: T1, human GIP receptor; experiment: ratio of IC50 with 2% HSA to IC50 with 0.1% casein, 125I-hGIP competition binding on hGIPR COS-7 cells
Description: as §1

[12] = molecular target: T1, human GIP receptor; experiment: 125I-hGIP(1-42) competition binding, COS-7 cells expressing human GIPR
Description: as §1

[13] = molecular target: T1, human GIP receptor; experiment: 125I-hGIP competition binding on hGIPR COS-7 cells; fold in affinity, paired, reference taken as GIP(3-30)NH2
Description: as §1

[14] = molecular target: T2, human GIP receptor; experiment: cell-based or functional assay; remark: listed apart in the source

Row | Molecule | cAMP - antagonisme IC50 [1] [nM] | cAMP - antagonisme fold (paired) [1] [fold] | IC50 [2] [nM] | IC50 [3] [nM] | Fold change (IC50 2% HSA / IC50 0.1% casein) [4] [fold] | IC50 [5] [nM] | fold (paired) [6] [fold] | IC50 [8] [nM] | cAMP - antagonisme IC50 [9] [nM] | cAMP - antagonisme fold (paired) [9] [fold] | IC50 [10] [nM] | Fold change (IC50 2% HSA / IC50 0.1% casein) [11] [fold] | IC50 [12] [nM] | fold (paired) [13] [fold] | also measured
1 | AT162 (H18K; K30R, C18 at position 16, as printed in Table 3b) (peptide) | 26.3 | 0.5 | 59.8 | 59.8 | 5.6 | 336 | 2.6 |  |  |  |  |  |  |  | 
2 | AT129 [hGIP(5-30)NH2-C18/30] (peptide) |  |  |  |  |  |  |  |  |  |  |  |  |  |  | log IC50 [7]: -3.9 log M
3 | AT114 [hGIP(3-30)NH2-C18/16] (peptide) | 29.2 | 2.3 | 115 | 102 | 7.7 | 881 | 6.7 |  |  |  |  |  |  |  | 
4 | AT162, second row of Table 3b (H18K; K30R, C16 at position 16) (peptide) | 213 | 4.1 | 213 | 213 | 3.3 | 705 | 9.2 |  |  |  |  |  |  |  | 
5 | B1 |  |  |  |  |  |  |  | 86.1 | 13.3 | 0.3 | 105 | 1.2 | 86.1 | 11 | 
6 | B2 |  |  |  |  |  |  |  | 48.8 | 36.1 | 0.7 | 175 | 3.6 | 48.8 | 6 | 
7 | B3 |  |  |  |  |  |  |  | 25 | 5.6 | 0.1 | 20 | 0.8 | 25 | 3 | 
8 | B4 |  |  |  |  |  |  |  | 7.9 | 4.5 | 0.1 | 16 | 2 | 7.9 | 1 | 
9 | EGTFISDYSIAMDK(Stearoyl)IRQQDFVNWLLAQR-NH2 (not fully specified) [AT162 [hGIP(3-30)NH2[H18R; K30R]-C18/16]] |  |  |  |  |  |  |  |  |  |  |  |  |  |  | cAMP agonism, EC50 (log) [14]: -5.9 log M; cAMP agonism, Emax [14]: 44%; cAMP agonism, nM (EC50) [14]: 1370 nM; IC50 [7]: 85 nM
10 | EGTFISDYSIAMDK(Myristoyl)IHQQDFVNWLLAQK-NH2 [AT111 [hGIP(3-30)NH2-C14/16]] |  |  |  |  |  |  |  | 407 | 21.9 | 3.3 | 2090 | 5.1 | 261 | 31 | 

Reference: US20200087373A1 (UNIVERSITY OF COPENHAGEN, published 2020)
